{"source": "patent US20250304711A1", "about": "“Methods and Compositions for Treating Obesity, Obesity-Related Diseases, Fatty Liver and Fatty Liver Associated Diseases with Anti-CD24 Agents” (The Board of Trustees of the Leland Stanford Junior …, priority 2022, published 2025)", "molecules": {"B1": {"name": "MOSW3: SWA11 mouse IgG2a, C1q and Fc silenced (L234A, L235A, K320A, K322A, P329G); SEQ ID NO: 17 and 34 (antibody)", "heavy": "DVQLQESGPDLVKPSQSLSLTCTVTGYSITSGYTWHWIRQFPGNTVEWMGYIQYTGSTRYNPALRGRLSISRDTSKNQFFLQLISVTTADTGTYFCARGTTASFDYWGQGTTLTVASAKTTAPSVYPLAPVCGDTTGSSVTLGCLVKGYFPEPVTLTWNSGSLSSGVHTFPAVLQSDLYTLSSSVTVTSSTWPSQSITCNVAHPASSTKVDKKIEPRGPTIKPCPPCKCPAPNAAGGPSVFIFPPKIKDVLMISLSPIVTCVVVDVSEDDPDVQISWFVNNVEVHTAQTQTHREDYNSTLRVVSALPIQHQDWMSGKEFACAVNNKDLGAPIERTISKPKGSVRAPQVYVLPPPEEEMTKKQVTLTCMVTDFMPEDIYVEWTNNGKTELNYKNTEPVLDSDGSYFMYSKLRVEKKNWVERNSYSCSVVHEGLHNHHTTKSFSRTPGK", "light": "DIVMSQSPSSLNVSVGEKVTMRCRSSQSLLYSSDQKNYLTWYQQKPGQSPKLLISWASTRASGVPDRFTGSGSGTDFTLTISSVKAEDLGVYYCQQYFIYPLTFGVGTKLGLKRADAAPTVSIFPPSSEQLTSGGASVVCFLNNFYPKDINVKWKIDGSERQNGVLNSWTDQDSKDSTYSMSSTLTLTKDEYERHNSYTCEATHKTSTSPIVKSFNRNEC"}}, "key": {"[1]": {"tested_on": "Huh7D cells", "test": "Steatosis in Huh7D cells cultured in fatty medium, Nile Red stain", "type": "cell-based", "details": "Huh7D cells 4 days in fatty medium, then treated 3 days in fatty medium; Nile Red fluorescence; agents at 1 μg/mL unless otherwise specified", "procedure": "FIG. 1A-1D: Relative lipid accumulation of Huh 7D cells when cultured on fatty medium and treated with various anti-CD24 agents. Agents were added at 1 μg/mL unless otherwise specified as in the Fab. MOSW1, SWA11, ML5, SN3: mouse anti human CD24 antibodies; MOSW2: SWA11 antibody with point mutations to silent complement activity; MOSW3: SWA11 antibody with point mutations to silent complement activity, antibody-dependent cytotoxicity (ADCC) and antibody-dependent cellular phagocytosis (ADCP); Fab: Fab of SWA11 antibody, G7s: scFv against human and mouse CD24; TW2, TW6, V2, V3, V4, V6, V7, V8, V9, V10, V14, V15, V16: different humanized anti-CD24 antibodies; hIgG: human IgG isotype control. FIG. 1A: anti-steatosis activity of SWA-11, Fab, TW2, TW6 and G7S; FIG. 1B: anti-steatosis activity of V2, V3, V4, V6, V7, V8, V9, V10, V14, V15, V16; FIG. 1C: anti-steatosis of SWA11, Fab, ML5, SN3, MOSW1, MOSW2, MOSW3; FIG. 1D: anti-steatosis of 3 small molecules that bind CD24.\nSpecifically, Huh7 cells, which are liver hepatoma cells, were cultured in 1% DMSO (Huh7D cells) and then supplemented with fatty medium to induce steatosis. […] To determine the degree of steatosis, cells were stained with 1 mg/ml Nile Red solution (Sigma Aldrich) in cell culture medium for 15 mins at 37° C. and florescence signal was measured."}, "[2]": {"tested_on": "NSG mice with humanized livers", "test": "NSG mice with humanized livers on HFD: graft survival, human albumin, CT", "type": "in vivo, mouse", "procedure": "In order to determine the effect of anti-CD24 agent in a more physiologic model of human fatty liver disease, we used a mouse model in which human liver can be engrafted. Briefly, NSG mice with humanized livers were prepared using the RAAPID-TKG method. These mice contain chimeric livers that harbor both murine and human hepatocytes and the degree of human liver engraftment can be ascertained by measuring serum human albumin. 2 mice with similar degrees of human liver engraftment, as measured by baseline serum human albumin, were placed on HFD for 6 weeks and then treated with either IgG control or an anti-CD24 antibody—which we term MOSW3—whose Fc has been engineered to contain point mutations that abrogate ADCC, ADCP, as well as compliment binding activity, i.e., Fc-silent antibody. Antibodies were dosed at 25 μg twice a week."}}}
{"molecule": "O=C(O)c1ccccc1C(=O)c1cn(-c2ccc(F)cc2)[n+]([O-])n1", "note": "[A]", "values": [{"measurement": "anti-steatosis efficacy (relative lipid accumulation)", "setting": "[1]", "result": "anti-steatosis efficacy"}]}
{"molecule": "Cc1cccc(-n2nc([N+](=O)[O-])c(NCc3ccc(F)cc3)[n+]2[O-])c1", "note": "[B]", "values": [{"measurement": "anti-steatosis efficacy (relative lipid accumulation)", "setting": "[1]", "result": "anti-steatosis efficacy"}]}
{"molecule": "B1", "values": [{"measurement": "steatosis on liver CT scan", "setting": "[2]; 3 weeks post treatment, IgG treated mouse vs MOSW3 treated mouse", "result": "The IgG treated mouse showed higher level of steatosis (FIG. 9B) compared to the MOSW3 treated mouse"}, {"measurement": "human liver graft survival", "setting": "[2]; HFD 6 weeks, then 25 μg twice a week, vs IgG control", "result": "longer graft survival"}, {"measurement": "serum human albumin", "setting": "[2]; humanized-liver NSG mice, HFD 6 weeks, then 25 μg twice a week, weekly serum for 3 weeks, vs IgG control", "result": "maintenance of serum human albumin"}]}
